Source: the DeepSol protein solubility set

Test: soluble on expression in E. coli; label from the status in PepcDB or PDB records

Soluble on expression in E. coli, not soluble:
MDALSRLLTLNAPQGSIDKNCPLGGDWQLPHAAGELSVIRWHTVTQGEAQLEMPTGDAMTLTPGKVVILPQNSAHRLRQSGESPTHIVCGSLRLHTTSRYFLTALPEVLCLAPPPHSPASIWINATILLLQQESERHLPGADVLYSQQCATLFTLAVRDWLSQAGTAKSVLNLLLHPRLGRVILHMLETPAHPWTVETLAQRVHMSRASFAQLFRDVSATTPLAVLTTLRLQIAAQTLSREVLPVMVIAESVGYASESSFHKAFVREFGCTPGEYRKRVSALGR
MSERLYYFVIVGRDDRVLYDLLYPASLSELDWRTSSELSSPAERGDFEPHHFIPSIQVLLQFVAYSALDHIEEKYWLTSARSLKHIFRFRDWSASVQLTPNAATRFVLVHGASDDASRNVRAFLHAVYEAYVPHVVCNPFQEEDAPITSKRFHEVAKNLAKRYFSG
MKILLRNALITNEGKTFPGSVMIDGAFISRIIEGELPADDNLSADEVIECSGLRLFPGCIDDQVHFREPGLTHKATIASESRAAVAGGVTSFMDMPNTNPPTTMWERLLEKRQIGADTAWANYGFFFGGTNDNIDEIKRVDKHLVPGLKLFLGSSTGNMLVDNKETLEKIFGECDLLIATHCEKEEIIRANKEHYKAKYGNDLDIHFHPLIRSEEACYRSSAEAVELAERMNARLHILHLSTEKELSLFRNDIPTAQKRITSEVCVHHLWFSDTDYGRLGNRIKWNPAIKKESDREALRAAVRNGRIDIIATDHAPHLLREKEGSCLQAASGGPLVQHSLLALLELCNQ
MGSDKIHHHHHHMTTTPLPTFSDDQAQAHDRIAEVLRDMGVDIDDDTLVPAKDTKSAVLAVTGKAGSGKTLLLAELVKALERTGVEIVSGDWEGKRRKDRRTVAVLAPTNKAASVLRNRGVPATTIHRILYTPMYDPEFEKVAEWLAGQGERPSIEALTDAAMDRAKEVYETTKSVPAALASAGLRGSDFITGWKRREDGLDIGLVDESSMLDDKQFQDLKEIFPTLVLFGDPAQLAPVGQSGEMIFDRFKGDNLLHLGRVHRQDADNPILDLAHALGDPQLEFRDFEQMIEDAAARDDRVVVSPRANSDMMARSPVLVWRNATRIRLIAAFRAAFGAGDDEILPGEPLICDGIELPLKHRKKRIDLEARGLIKGAPVVYLGPGNKPGFSRLHVMGAETPRFSAASIVKIEKPGEEEPFLPYAARMGAAFLHGAAVTMHKAQGSQWPEVQVFSPDLYAASRAGRMEAGQALWKRLAYVAITRAEERLFWVTRYMLSRPVHDLSTDDLTVKAAPLELEAEEDADTSTM
MGSDKIHHHHHHMVMNRSSLDGFFDPSYLENILGNFTQATGLRIEAVNYRGETFSIPGSLDRSPFCQCIRNNPQGNKRCIDSYKRATSEAVKWDEPYFFRCHAGLVIWAVPILSKDITLGSIICGQVLLWKPDRFFIQELQDISKGLKIDPEELNQAVPNLSIISADQAQAAANLLFVVVSHILKNNLRALEEEKAYKVLQQQLHDQILKRKKGPRRTDISYESILKDERRFLQYIRLGDKSRAFATLENLIIKIYTKSTGEPQLAKDRIVELAALTSRAAVEGGSDAEQAVTILSSFYKKLENMERVEEIIYFIKQIVDEFLENIFILADKKHLSLVKDARSFILHNHAQPLTIADAAQHLFISPSHLSRLFRQQLDCTFNDYLTRVRVEKAVELLKKPEFSVKDVALAVGFQNQSHFAKVFRKYIGVTPLVYRNSLF
DLTAIIGLEVHVQLETDTKIFCGCSTDTDDADPNTHTCPVCLGLPGALPTLNEGAVEAAVKLGKAIDADIPERTRFHRKNYFYPDLPKGFQITQYDAPICQDGELEVGTADDRRAIGIERAHLEEDPGSLQHVGGSIEDADYTLVDYNRAGTPLMEIVTRPDFRAAEEVRSFLAKLTSVLEYLGVFDAERDGSLRVDANISMVDSAELAGEGGPSDDVLEAANRTEVKNISSHRAAQKALAYETTRQRNQLER
MGSDKIHHHHHHMANSGQIRVGIGGWNFEPWEGTFYPDDLPKKRQLEFAGKELRTIEVNGTYYSSQKPATFAKWAAEVPDGFIFSLKASRFVTNRRVLSEAGESMERFLTQGLTELGDRLGPILWQFAPTKKFDAEDFEGFLKLLPEKQDGLKLRHVVEVRNPSFQVPDFVKLIEKYKVAVVLAEHADYPMIADVTGDFVYARLQKGSDEVKTCYPPKDLDRWAERLKTFAAGGEPDDLEKAAPERQPETAPRDVFAFFITSGKVNAPNGARELQKRVG
